According to US20260273049A1 (ALLIGATOR BIOSCIENCE, published 2026):

How the values were obtained:
[1] = target: T1, human CEACAM1 expressed on CHO cells (human, UniProt P13688 35-526); test: flow cytometry on CEACAM1-transfected CHO cells, fluorochrome-conjugated anti-human IgG [1/2) B]
T1 construct: whole, on cells; also called CHO-CEACAM1; CEACAM1 on cells
T1 sequence (looked up): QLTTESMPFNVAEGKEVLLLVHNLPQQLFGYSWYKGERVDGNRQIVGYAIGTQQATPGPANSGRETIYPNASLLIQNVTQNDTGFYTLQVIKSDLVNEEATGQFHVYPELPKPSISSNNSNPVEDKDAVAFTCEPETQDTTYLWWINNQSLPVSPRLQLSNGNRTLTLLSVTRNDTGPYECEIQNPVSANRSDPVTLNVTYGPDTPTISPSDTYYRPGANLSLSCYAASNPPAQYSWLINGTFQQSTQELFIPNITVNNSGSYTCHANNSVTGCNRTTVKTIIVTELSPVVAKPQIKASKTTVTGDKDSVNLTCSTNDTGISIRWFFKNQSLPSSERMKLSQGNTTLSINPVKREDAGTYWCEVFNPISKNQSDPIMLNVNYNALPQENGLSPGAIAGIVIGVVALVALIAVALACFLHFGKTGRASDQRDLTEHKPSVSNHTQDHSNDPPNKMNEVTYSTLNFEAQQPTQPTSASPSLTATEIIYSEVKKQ
From the text: The human CEACAM5 and CEACAM1 genes were cloned into pcDNA3.1, and the vector was subsequently stably transfected into CHO cells. […] Binding of the antibodies was detected using fluorochrome-conjugated anti-human IgG and analyzed using flow cytometry.

[2] = target: T2, human CEACAM6 (hCEACAM-6, #3934-CM-050, R&D Systems) (human, UniProt P40199 35-320); test: ELISA; antigen coated at 0.5 µg/mL, bsAb titrated, anti-human kappa-HRP, luminescence [5/7) Multi44]
T2 construct: Bought protein
T2 sequence (looked up): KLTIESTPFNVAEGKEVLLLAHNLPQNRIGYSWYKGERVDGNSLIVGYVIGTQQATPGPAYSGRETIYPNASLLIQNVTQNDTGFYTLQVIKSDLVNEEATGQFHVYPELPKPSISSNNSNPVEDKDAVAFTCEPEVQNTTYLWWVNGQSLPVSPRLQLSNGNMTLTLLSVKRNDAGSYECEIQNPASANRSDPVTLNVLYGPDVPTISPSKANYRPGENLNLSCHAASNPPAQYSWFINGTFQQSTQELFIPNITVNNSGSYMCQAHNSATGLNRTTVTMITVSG
Description: (§1) 96-well plates were coated with 0.5 μg/mL antigen, hCEACAM-1 (2244-CM-050, R&D Systems), hCEACAM-5 (4128-CM-050, R&D Systems), hCEACAM-6 (3934-CM-050, R&D Systems) or CEACAM-8 (9639-CM-050, R&D Systems) in PBS over night at 4° C. After washing in PBS/0.05% Tween 20 (PBST), the plates were blocked with PBST, 2% BSA for at least 30 minutes at room temperature before a second round of washing. RUBY bsAbs, diluted in PBST, 0.5% BSA, were then added and allowed to bind for at least 1 hour at room temperature. […] Finally, a final round of washing was performed and bound complexes detected using SuperSignal Pico Luminescent as substrate and luminescence signals were measured using Fluostar Optima.

[3] = target: T3, human CEACAM1 (hCEACAM-1, #2244-CM-050, R&D Systems) (human, UniProt P13688 35-428); test: as above
T3 construct: Bought protein
T3 sequence (looked up): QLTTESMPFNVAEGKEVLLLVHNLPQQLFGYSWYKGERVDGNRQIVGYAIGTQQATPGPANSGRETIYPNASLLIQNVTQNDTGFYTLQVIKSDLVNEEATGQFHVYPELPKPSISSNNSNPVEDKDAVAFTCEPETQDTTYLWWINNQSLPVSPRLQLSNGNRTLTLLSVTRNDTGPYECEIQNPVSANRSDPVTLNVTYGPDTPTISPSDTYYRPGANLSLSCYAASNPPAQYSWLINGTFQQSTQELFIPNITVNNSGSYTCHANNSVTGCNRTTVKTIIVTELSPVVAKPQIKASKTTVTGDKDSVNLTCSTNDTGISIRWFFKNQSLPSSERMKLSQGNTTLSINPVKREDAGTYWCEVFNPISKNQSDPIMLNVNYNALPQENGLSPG
Description: as §1

[4] = target: human CD40 expressed on cells (CD40 reporter cells, HEK Blue CD40L cells, B cells, Raji cells) (human, UniProt P25942 21-277); test: cell-based or functional assay
Chain of human CD40 expressed on cells (CD40 reporter cells, HEK Blue CD40L cells, B cells, Raji cells) (P25942 21-277): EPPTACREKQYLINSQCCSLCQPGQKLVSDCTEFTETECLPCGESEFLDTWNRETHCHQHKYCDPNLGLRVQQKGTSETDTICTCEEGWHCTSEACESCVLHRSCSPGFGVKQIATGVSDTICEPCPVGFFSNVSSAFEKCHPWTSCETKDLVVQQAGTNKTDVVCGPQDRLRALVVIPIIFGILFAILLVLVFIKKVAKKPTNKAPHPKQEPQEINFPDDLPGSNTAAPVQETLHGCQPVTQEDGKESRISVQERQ

binding result [1]: no binding (tested: 400 nM)
binding result [2]: no binding (tested: 100 nM)
binding result [3]: no binding (tested: 100 nM)
EC50 (nM), HEK Blue CD40L SEAP reporter, CHO-CEACAM5 crosslinking, 0 Raji sink cells/well [4]: 0.02 nM
EC50 (nM), HEK Blue CD40L SEAP reporter, CHO-CEACAM5 crosslinking, 10 000 Raji sink cells/well [4]: 0.05 nM
EC50 (nM), HEK Blue CD40L SEAP reporter, CHO-CEACAM5 crosslinking, 30 000 Raji sink cells/well [4]: 0.08 nM
EC50 (nM), HEK Blue CD40L SEAP reporter, CHO-CEACAM5 crosslinking, 90 000 Raji sink cells/well [4]: 0.16 nM
B1: Multi44 (bispecific antibody)
heavy 1: not shown
light: DIQMTQSPSSLSASVGDRVTITCRASQSISSYLNWYQEKPGKAPKLLIYAASSLQSGVPSRFSGSGSGTDFTLTISSLQPEDFATYYCQQWGYLLTFGQGTKLEIKRTVAAPSVFIFPPSDEQLKSGTASVVCYLNNFYPREAKVQWKVDNALQSGNSQESVTEQDSKDSTYSLWSTLTLSKADYEKHKVYACEVTHQGLSSPVTKSFNRGEC
heavy 2: EVQLLESGGGLVQPGGSLRLSCAASGFTFSTYGMHWVREAPGKGLEWLSYISGGSSYIFYADSVKGRFTISRDNSKNTLYLQMNSLRAEDTAVYYCARILRGGSGMDLWGQGTLVTVSSASTKGPSVFPLAPSSKSTSGGTAALGCLVKDYFPEPVTVSWNSGALTSGVHTFPAVLQSSGLYSLTSVVEVPSSSLGTQTYICNVNHKPSNTKVDKKVEPKSC
notes: Optimized RUBY format; copies: 2 + 2 + 2
